Laboratory results: the supplement of paper PMC10065799, “High-throughput profiling of sequence recognition by tyrosine kinases and SH2 domains using bacterial peptide display” (eLife, 2023)

Columns and labels:
SHP2-C SH2 = assay: SH2 binding enrichment of the phosphorylated peptide, bacterial display (enrichment ratio); higher = better substrate or ligand; peptides without Tyr show the background
c-Src SH2 = assay: as above
Grb2 SH2 = Grb2 SH2 (UniProt P62993); assay: as above
Fyn = Fyn (UniProt P06241); assay: phosphorylation enrichment, bacterial display (enrichment ratio); higher = better substrate or ligand; peptides without Tyr show the background
Sequence of Fyn (P06241 whole entry, looked up): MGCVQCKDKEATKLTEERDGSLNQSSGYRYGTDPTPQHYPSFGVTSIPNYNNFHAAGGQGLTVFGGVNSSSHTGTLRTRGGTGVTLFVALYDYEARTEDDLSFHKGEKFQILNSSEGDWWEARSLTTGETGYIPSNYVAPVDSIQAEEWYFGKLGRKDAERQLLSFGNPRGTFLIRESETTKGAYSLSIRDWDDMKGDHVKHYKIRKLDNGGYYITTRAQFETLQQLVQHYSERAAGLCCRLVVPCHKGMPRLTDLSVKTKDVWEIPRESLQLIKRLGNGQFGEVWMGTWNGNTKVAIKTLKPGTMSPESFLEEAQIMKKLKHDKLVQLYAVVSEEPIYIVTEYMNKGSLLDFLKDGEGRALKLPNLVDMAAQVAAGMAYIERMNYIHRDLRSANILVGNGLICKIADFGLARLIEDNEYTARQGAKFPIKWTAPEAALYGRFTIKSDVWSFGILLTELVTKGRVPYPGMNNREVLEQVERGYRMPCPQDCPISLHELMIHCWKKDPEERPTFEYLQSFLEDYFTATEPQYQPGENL

Fes = Fes (UniProt P07332); assay: as above
AncSZ = assay: as above
FGFR1 = FGFR1 (UniProt P11362); assay: as above
EPHB2 = EPHB2 (UniProt P29323); assay: as above
MERTK = MERTK (UniProt Q12866); assay: as above
Sequence of MERTK (Q12866 whole entry, looked up): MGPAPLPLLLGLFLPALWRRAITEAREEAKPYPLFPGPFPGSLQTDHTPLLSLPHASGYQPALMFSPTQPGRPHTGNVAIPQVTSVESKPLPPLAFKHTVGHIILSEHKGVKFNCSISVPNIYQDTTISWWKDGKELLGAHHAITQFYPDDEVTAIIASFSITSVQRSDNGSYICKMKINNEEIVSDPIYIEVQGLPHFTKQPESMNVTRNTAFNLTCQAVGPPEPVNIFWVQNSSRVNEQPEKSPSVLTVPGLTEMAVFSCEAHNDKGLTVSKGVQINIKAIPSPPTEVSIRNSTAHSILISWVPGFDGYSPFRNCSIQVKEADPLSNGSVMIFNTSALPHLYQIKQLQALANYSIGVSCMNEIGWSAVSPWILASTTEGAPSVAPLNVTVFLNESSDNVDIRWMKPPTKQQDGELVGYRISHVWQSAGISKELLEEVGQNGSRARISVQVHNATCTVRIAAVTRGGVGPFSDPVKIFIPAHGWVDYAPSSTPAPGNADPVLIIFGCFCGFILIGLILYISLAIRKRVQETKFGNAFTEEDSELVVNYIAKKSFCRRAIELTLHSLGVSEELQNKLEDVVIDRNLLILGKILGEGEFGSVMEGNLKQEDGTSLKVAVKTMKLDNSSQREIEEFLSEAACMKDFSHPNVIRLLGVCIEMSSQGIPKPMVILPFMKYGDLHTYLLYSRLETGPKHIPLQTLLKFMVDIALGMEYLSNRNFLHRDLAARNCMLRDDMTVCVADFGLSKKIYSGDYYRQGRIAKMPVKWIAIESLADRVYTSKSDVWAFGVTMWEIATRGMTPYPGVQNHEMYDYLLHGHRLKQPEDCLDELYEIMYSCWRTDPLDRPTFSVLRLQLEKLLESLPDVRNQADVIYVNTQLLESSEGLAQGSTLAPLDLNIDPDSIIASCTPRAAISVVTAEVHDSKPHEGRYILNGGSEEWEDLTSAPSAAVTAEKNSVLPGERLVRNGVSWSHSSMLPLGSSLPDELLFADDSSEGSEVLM

FGFR3 = FGFR3 (UniProt P22607); assay: as above
Sequence of FGFR3 (P22607 whole entry, looked up): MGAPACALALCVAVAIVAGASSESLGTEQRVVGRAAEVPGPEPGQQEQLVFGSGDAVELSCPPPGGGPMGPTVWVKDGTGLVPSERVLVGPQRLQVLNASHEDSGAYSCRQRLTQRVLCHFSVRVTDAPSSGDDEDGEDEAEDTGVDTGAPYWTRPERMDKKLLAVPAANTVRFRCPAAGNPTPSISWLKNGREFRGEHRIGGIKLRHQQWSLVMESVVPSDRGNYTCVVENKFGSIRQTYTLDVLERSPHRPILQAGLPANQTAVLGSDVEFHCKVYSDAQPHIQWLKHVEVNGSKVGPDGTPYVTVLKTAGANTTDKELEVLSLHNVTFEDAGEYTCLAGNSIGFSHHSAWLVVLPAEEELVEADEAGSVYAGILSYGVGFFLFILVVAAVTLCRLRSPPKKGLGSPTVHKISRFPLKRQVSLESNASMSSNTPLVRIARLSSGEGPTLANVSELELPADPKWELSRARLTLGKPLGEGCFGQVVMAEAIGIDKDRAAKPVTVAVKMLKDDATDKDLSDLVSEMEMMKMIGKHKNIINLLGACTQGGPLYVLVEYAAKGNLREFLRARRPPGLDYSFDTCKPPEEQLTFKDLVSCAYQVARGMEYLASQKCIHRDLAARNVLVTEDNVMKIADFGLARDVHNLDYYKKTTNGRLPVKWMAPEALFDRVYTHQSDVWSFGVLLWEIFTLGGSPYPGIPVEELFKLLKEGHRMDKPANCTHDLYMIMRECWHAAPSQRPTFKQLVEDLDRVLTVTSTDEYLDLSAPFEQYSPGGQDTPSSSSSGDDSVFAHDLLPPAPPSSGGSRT

Fer (mouse) = assay: as above
Jak2 = Jak2 (UniProt O60674); assay: as above
Sequence of Jak2 (O60674 whole entry, looked up): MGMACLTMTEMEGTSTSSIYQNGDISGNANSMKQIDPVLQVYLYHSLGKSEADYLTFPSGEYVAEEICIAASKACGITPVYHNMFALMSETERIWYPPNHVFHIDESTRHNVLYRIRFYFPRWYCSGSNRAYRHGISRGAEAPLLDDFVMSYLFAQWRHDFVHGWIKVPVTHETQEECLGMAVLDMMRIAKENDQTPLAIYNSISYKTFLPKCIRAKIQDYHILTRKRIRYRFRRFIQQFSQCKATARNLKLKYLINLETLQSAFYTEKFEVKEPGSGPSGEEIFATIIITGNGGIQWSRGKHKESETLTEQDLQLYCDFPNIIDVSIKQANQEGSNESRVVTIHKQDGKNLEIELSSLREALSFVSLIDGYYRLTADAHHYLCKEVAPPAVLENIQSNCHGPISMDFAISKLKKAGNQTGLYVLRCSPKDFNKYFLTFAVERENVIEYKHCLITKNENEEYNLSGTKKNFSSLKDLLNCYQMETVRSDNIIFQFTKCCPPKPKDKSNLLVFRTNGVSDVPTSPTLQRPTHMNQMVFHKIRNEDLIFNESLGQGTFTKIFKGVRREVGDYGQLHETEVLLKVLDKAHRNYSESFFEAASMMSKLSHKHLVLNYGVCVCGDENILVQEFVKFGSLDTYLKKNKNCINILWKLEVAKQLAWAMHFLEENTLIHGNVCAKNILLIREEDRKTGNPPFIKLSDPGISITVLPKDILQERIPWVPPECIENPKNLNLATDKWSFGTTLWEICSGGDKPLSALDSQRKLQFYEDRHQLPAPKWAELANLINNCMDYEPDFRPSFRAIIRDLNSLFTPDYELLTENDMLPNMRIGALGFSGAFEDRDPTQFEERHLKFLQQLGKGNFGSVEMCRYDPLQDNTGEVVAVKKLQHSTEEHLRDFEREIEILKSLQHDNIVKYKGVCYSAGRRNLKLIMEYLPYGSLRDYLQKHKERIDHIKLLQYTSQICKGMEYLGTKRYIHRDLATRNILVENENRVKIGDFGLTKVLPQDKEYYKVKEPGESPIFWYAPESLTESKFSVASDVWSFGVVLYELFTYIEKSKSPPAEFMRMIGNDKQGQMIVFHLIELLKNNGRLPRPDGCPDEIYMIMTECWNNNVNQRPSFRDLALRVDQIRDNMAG

c-Abl (mouse) = assay: as above
EPHB1 = EPHB1 (UniProt P54762); assay: as above
Sequence of EPHB1 (P54762 whole entry, looked up): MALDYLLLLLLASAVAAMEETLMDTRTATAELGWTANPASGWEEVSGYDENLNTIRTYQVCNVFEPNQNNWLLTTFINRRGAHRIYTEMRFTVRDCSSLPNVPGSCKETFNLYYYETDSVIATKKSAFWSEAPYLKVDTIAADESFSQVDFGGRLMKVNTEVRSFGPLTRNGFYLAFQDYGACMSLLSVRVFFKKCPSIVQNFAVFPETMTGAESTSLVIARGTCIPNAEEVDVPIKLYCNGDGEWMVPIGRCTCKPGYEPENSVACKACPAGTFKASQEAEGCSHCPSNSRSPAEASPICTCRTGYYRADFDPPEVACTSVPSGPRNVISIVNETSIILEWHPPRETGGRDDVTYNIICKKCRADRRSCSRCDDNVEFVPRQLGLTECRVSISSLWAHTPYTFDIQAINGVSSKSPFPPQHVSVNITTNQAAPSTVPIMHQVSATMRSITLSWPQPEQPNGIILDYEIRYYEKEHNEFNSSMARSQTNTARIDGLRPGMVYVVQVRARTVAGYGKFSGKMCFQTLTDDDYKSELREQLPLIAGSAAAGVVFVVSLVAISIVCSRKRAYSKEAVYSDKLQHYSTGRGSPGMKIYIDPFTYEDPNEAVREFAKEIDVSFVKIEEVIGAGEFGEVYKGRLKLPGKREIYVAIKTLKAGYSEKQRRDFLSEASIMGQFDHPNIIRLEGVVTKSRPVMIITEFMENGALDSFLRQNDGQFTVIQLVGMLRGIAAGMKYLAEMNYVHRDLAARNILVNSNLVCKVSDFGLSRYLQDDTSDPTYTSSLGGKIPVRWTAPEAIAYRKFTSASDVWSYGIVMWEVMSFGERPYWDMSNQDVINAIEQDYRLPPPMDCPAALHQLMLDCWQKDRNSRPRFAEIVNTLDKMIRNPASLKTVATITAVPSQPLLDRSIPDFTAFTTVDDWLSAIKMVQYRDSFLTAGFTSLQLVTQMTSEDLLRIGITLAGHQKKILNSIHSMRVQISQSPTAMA

Hck = Hck (UniProt P08631); assay: as above
c-Src = assay: as above
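Wherever SH2 binding enrichment of the phosphorylated peptide, bacterial display is given: peptide library displayed on the E. coli surface as eCPX fusions, selected cells deep-sequenced, score is each peptide's frequency after selection divided by its frequency in the input.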
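Wherever phosphorylation enrichment, bacterial display is given: 11-residue human phosphosite peptides and single-mutation variants displayed on the E. coli surface, counted by deep sequencing, each peptide's frequency after selection divided by its frequency in the unselected input library; frequency after pTyr selection over input frequency; kinase dosed for 20-30% of maximal phosphorylation in three min.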

Sequence of Grb2 SH2 (P62993 whole entry, looked up): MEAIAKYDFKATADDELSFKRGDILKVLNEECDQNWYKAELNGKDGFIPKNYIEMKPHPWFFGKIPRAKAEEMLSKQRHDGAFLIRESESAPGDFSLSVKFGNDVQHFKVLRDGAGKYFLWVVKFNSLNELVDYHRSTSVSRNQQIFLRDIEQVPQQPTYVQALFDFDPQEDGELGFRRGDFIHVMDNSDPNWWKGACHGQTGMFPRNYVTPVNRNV

Sequence | SH2 binding enrichment (SHP2-C SH2) | SH2 binding enrichment (c-Src SH2) | SH2 binding enrichment (Grb2 SH2) | phosphorylation enrichment (Fyn) | phosphorylation enrichment (Fes) | phosphorylation enrichment (AncSZ) | phosphorylation enrichment (FGFR1) | phosphorylation enrichment (EPHB2) | phosphorylation enrichment (MERTK) | phosphorylation enrichment (FGFR3) | phosphorylation enrichment (Fer (mouse)) | phosphorylation enrichment (Jak2) | phosphorylation enrichment (c-Abl (mouse)) | phosphorylation enrichment (EPHB1) | phosphorylation enrichment (Hck) | phosphorylation enrichment (c-Src)
LRRQDYQEILD [SLC35G2_Y403_K400R] | 0.767 | 3.37 | 0.78 | 0.492 | 1.58 | 1.35 | 0.727 | 0.898 | 0.622 | 0.783 | 0.509 | 1.06 | 0.621 | 0.838 | 0.352 | 0.376
TEHMAYCPIQC [SHC4_Y403_Q400H] | 0.685 | 1.2 | 0.821 | 0.466 | 0.821 | 0.72 | 0.458 | 0.524 | 0.416 | 0.638 | 0.557 | 0.778 | 0.661 | 0.489 | 0.805 | 0.764
DYYDLYGGQKF [PTPN11_Y66_E69Q] | 0.865 | 0.666 | 0.86 | 7.93 | 1.02 | 2.69 | 15.9 | 8.29 | 5.66 | 13.5 | 2.32 | 5.14 | 0.814 | 8.34 | 8.28 | 6.47
SVTCRYSPALN [TP53_Y126_T125R] | 0.539 | 0.366 | 0.663 | 0.397 | 0.938 | 0.864 | 0.413 | 0.446 | 0.514 | 0.561 | 0.437 | 0.805 | 0.611 | 0.508 | 0.392 | 0.427
KEELDYLKKNH [KRT14_Y248_A247D] | 0.682 | 0.425 | 0.742 | 0.355 | 1.1 | 1.04 | 0.447 | 0.624 | 0.419 | 0.666 | 0.45 | 0.879 | 0.854 | 0.554 | 0.382 | 0.467
QGIIIYRAAFF [SLC25A4_Y187_YF] | 0.772 | 0.307 | 0.699 | 0.342 | 1.69 | 1.21 | 0.327 | 0.338 | 0.61 | 0.634 | 0.581 | 1.17 | 1.04 | 0.605 | 0.422 | 0.542
SEHLIYLEFKS [RASGRP1_Y215_T214I] | 0.729 | 0.499 | 0.801 | 6.74 | 1.46 | 1.44 | 1.61 | 1.04 | 0.875 | 1.77 | 0.69 | 1.2 | 6.39 | 1.58 | 5.08 | 5.64
LLRLAYLADVF [ZBED5_Y476_I480V] | 2.41 | 1.82 | 1.97 | 0.484 | 1.19 | 1.18 | 0.577 | 0.583 | 0.537 | 0.725 | 0.633 | 0.924 | 0.704 | 0.74 | 0.628 | 0.47
GRSTYYWPSPR [GAGE12J_Y10_R13S] | 0.923 | 0.898 | 1.12 | 6.75 | 0.796 | 1.78 | 7.32 | 11.1 | 17 | 5.22 | 1.44 | 7.45 | 6.32 | 10.5 | 7.41 | 7.28
ELANLYHHVWM [BICD2_Y538_C542W] | 0.835 | 0.816 | 0.869 | 2.75 | 1.25 | 1.32 | 6.38 | 1.93 | 6.21 | 4.76 | 12.9 | 1.3 | 0.918 | 6.35 | 5.11 | 2.51
YEHVGYTTLNR [CHN1_Y148] | 19.4 | 16.5 | 0.904 | 0.657 | 0.658 | 0.72 | 0.725 | 0.758 | 4.18 | 0.597 | 4.18 | 0.725 | 1.01 | 0.616 | 2.79 | 0.655
FVSIVYSDSGE [TSC2_Y1650_N1651S] | 0.967 | 0.83 | 0.928 | 0.506 | 1.16 | 0.766 | 0.444 | 0.582 | 0.37 | 0.717 | 0.403 | 0.952 | 0.529 | 0.439 | 0.532 | 0.591
LADMNYVHRDL [EPHB2_Y742] | 0.667 | 0.305 | 0.676 | 0.481 | 1.6 | 1.51 | 0.714 | 0.565 | 0.796 | 0.801 | 0.933 | 0.916 | 0.923 | 0.762 | 0.916 | 0.721
AVLSLYASGRT [ACTA1_Y145] | 0.731 | 0.555 | 0.971 | 0.489 | 1.2 | 1.02 | 0.523 | 0.571 | 0.413 | 0.699 | 0.503 | 1.04 | 0.813 | 0.622 | 0.702 | 0.461
NLTVNYKKNLT [SQOR_Y259_I264T] | 0.482 | 0.381 | 0.93 | 0.608 | 1.24 | 0.883 | 0.376 | 0.629 | 0.547 | 0.615 | 0.503 | 1.05 | 1.03 | 0.429 | 0.539 | 0.502
PVQAAYEKVVA [HBB_Y131_Q132E] | 0.886 | 2.59 | 0.885 | 0.88 | 1.02 | 0.855 | 0.786 | 0.345 | 0.507 | 0.699 | 0.958 | 0.568 | 0.551 | 0.744 | 0.591 | 0.415
VAVTKYCKEEF [ATP7B_Y1078_L1083F] | 0.598 | 0.501 | 0.862 | 0.459 | 1.05 | 0.887 | 0.563 | 0.568 | 0.357 | 0.624 | 0.487 | 0.959 | 0.707 | 0.605 | 0.458 | 0.462
GLDGSYLLRYS [SH2D1A_Y29_D33Y] | 1.14 | 0.438 | 0.97 | 0.485 | 0.979 | 0.685 | 0.478 | 0.455 | 0.434 | 0.57 | 0.415 | 0.665 | 0.542 | 0.436 | 0.512 | 0.441
KRIKLYNQEND [RPGRIP1L_Y448] | 0.673 | 0.489 | 0.856 | 0.377 | 0.681 | 0.643 | 0.412 | 0.387 | 0.439 | 0.459 | 0.388 | 0.502 | 0.612 | 0.306 | 0.379 | 0.353
PLQKTYNFNVL [SLC4A1_Y553_YF] | 0.633 | 0.53 | 1.11 | 0.602 | 0.903 | 0.686 | 0.554 | 0.645 | 0.426 | 0.593 | 0.383 | 1.05 | 0.627 | 0.709 | 0.477 | 0.43
DEYLEHRRIVG [FAM221A_Y20_Y20H] | 0.611 | 0.484 | 0.918 | 0.399 | 0.883 | 0.764 | 0.6 | 0.679 | 0.38 | 0.611 | 0.506 | 0.526 | 0.434 | 1.95 | 0.489 | 0.347
KLKNAYEECLE [MYH7_Y1488_S1491C] | 0.755 | 2.71 | 1.08 | 0.438 | 1.16 | 1.15 | 0.508 | 0.554 | 0.432 | 0.739 | 0.615 | 0.984 | 0.799 | 0.501 | 0.642 | 0.502
HSDDDYDDPEL [CLNK_Y69] | 0.829 | 0.607 | 0.779 | 0.439 | 1.74 | 1.67 | 0.646 | 0.719 | 0.664 | 0.756 | 0.399 | 1.48 | 1.06 | 0.477 | 0.846 | 0.753
LIGWRYDDPEV [HSPA9_Y128_R126W] | 1 | 3.68 | 1.01 | 0.538 | 1.24 | 0.984 | 0.419 | 0.859 | 0.451 | 0.607 | 0.416 | 1.17 | 0.652 | 0.544 | 0.471 | 0.43
KLIMECLPYGS [JAK2_Y931_Y931C] | 0.606 | 0.451 | 0.767 | 0.513 | 0.998 | 0.907 | 0.542 | 0.649 | 0.489 | 0.766 | 0.448 | 0.886 | 0.738 | 0.564 | 0.512 | 0.424
QKPLGYYRVNL [GALE_Y104_D103G] | 1.3 | 0.961 | 1.27 | 0.528 | 0.641 | 0.667 | 0.636 | 0.482 | 0.516 | 0.826 | 0.51 | 2.37 | 0.455 | 0.445 | 0.497 | 0.386
CTAIHYNYMCN [TP53_Y234_T231A] | 2.87 | 6.38 | 1.3 | 0.386 | 0.727 | 0.707 | 0.479 | 0.506 | 0.398 | 0.581 | 0.401 | 0.569 | 0.48 | 0.628 | 0.429 | 0.441
AIDVGYRHIDC [AKR1B1_Y40] | 1.12 | 0.98 | 1.04 | 0.466 | 0.844 | 0.637 | 0.476 | 0.531 | 0.366 | 0.622 | 0.44 | 0.635 | 0.629 | 0.419 | 0.457 | 0.411
HNQDDYSYPSR [LDLR_Y845_G844D] | 0.616 | 0.829 | 1.29 | 0.664 | 0.856 | 5.73 | 0.82 | 2.52 | 0.653 | 0.79 | 0.567 | 0.751 | 0.776 | 1.2 | 0.651 | 0.597
